The values that follow come from patent US20260183429A1 (TRUSTEES OF COLUMBIA UNIVERSITY IN THE CITY OF NEW YORK, published 2026).

The experiment concerns the target T1, endogenous MFN2 in WT mouse embryonic fibroblasts (MEFs) (mouse, UniProt Q80U63 1-757).
T1 construct: Detected in situ by proximity ligation assay; also called mitofusin-2
T1 sequence (looked up): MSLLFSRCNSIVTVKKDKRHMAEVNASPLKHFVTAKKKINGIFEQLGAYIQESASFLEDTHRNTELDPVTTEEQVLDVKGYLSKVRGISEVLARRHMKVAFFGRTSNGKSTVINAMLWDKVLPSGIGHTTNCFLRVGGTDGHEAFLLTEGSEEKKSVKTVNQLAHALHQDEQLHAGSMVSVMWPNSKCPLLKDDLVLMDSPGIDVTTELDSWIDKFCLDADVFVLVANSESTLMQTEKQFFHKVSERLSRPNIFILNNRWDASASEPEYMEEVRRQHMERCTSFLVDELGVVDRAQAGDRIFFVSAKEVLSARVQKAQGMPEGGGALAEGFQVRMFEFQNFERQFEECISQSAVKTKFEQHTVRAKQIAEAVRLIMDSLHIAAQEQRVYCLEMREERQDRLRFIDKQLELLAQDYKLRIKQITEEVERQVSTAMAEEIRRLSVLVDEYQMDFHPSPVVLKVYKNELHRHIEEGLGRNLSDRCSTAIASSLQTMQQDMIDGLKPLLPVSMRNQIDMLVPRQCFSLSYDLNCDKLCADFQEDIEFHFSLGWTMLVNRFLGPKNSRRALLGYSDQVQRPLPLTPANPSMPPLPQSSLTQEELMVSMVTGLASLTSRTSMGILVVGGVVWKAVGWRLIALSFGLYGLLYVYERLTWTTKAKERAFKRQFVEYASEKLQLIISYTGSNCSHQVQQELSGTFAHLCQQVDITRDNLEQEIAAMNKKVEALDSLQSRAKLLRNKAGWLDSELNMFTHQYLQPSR
Briefly: proximity ligation assay of MFN2 and ATAT1 in WT MEFs.

B1: endogenous ATAT1 in WT mouse embryonic fibroblasts (MEFs) (enzyme, UniProt Q8K341 1-421, looked up)
chain: MEFPFDVDALFPERITVLDQHLRPPARRPGTTTPARVDLQQQIMTIVDELGKASAKAQHLPAPITSALRMQSNRHVIYILKDTSARPAGKGAIIGFLKVGYKKLFVLDDREAHNEVEPLCILDFYIHESVQRHGHGRELFQHMLQKERVEPHQLAIDRPSPKLLKFLNKHYNLETTVPQVNNFVIFEGFFAHQHRPPTSSLRATRHSRAAVADPIPAAPARKLPPKRAEGDIKPYSSSDREFLKVAVEPPWPLNRAPRRATPPAHPPPRSSSLGNSPDRGPLRPFVPEQELLRSLRLCPPHPTARLLLATDPGGSPAQRRRTRGTPWGLVAQSCHYSRHGGFNTSFLGTGNQERKQGEQEAEDRSASEDRVLLLDGSGEEPTQTGAPRAQAPPPQSWTVGGDIMNARVIRNLQERRSTRPW
notes: Detected in situ by proximity ligation assay
Take B1: the binding result is on record as “binds”.
